Laboratory results published in PMC11734622.

Biological target: HA-tagged human GABARAP [human]
Assay: co-immunoprecipitation (anti-HA IP), immunoblot quantification
Details: 2 h, RAW 264.7 LRRK2 KO cells, read off a plot

Row | response (DMSO, parent: 1) [A.U.] | response (DMXAA 100 µg/mL, parent: 3.5) [A.U.] | Substance
1 | 0.25 | 0.9 | Halo-tagged human LRRK2 (WT) mutant W109A; L112A [human] / HA-tagged human GABARAP [human] chain 1 W109A, chain 1 L112A
2 | 0.4 | 0.85 | Halo-tagged human LRRK2 (WT) mutant W109A; L112A; W875A; I878A [human] / HA-tagged human GABARAP [human] chain 1 W109A, chain 1 L112A, chain 1 W875A, chain 1 I878A
3 | 1.1 | 1.7 | Halo-tagged human LRRK2 (WT) mutant W875A; I878A [human] / HA-tagged human GABARAP [human] chain 1 W875A, chain 1 I878A
